Test results: patent publication US20140105889A1 (published 2014)
Values belong to the binder of their own block, whether it stands above or below them.

Tests used:
mouse FcγRIV = molecular target: T1, mouse FcγRIV (mouse); test: SPR (Biacore), antibody captured on Protein L, mouse FcγR as analyte, pH 7.4, 25 C (method of Example 4, RU)
T1 construct: Bought soluble receptor; also called mFcgRIV; mFcgR IV

human FcRn [1] = molecular target: T2, human FcRn (human); test: SPR (Biacore), antibody captured by Protein L, human FcRn as analyte, pH 7.0
T2 construct: Soluble human FcRn complexed with β2-microglobulin; also called hFcRn; soluble human FcRn complexed with β2-microglobulin

human FcRn [2] = molecular target: T2, human FcRn; test: as above; remark: listed apart in the source
human FcRn [3] = molecular target: T3, human FcRn (human); test: SPR (Biacore), pH 7.0, 25 C, antibody captured by Protein L, human FcRn as analyte
T3 construct: also called hFcRn; soluble human FcRn complexed with β2-microglobulin

[4] = molecular target: T4, human FcRn (soluble human FcRn complexed with beta2-microglobulin) (human, UniProt P61769 21-119); test: as above
T4 construct: also called hFcRn

T1 sequence (A0A0B4J1G0 21-203): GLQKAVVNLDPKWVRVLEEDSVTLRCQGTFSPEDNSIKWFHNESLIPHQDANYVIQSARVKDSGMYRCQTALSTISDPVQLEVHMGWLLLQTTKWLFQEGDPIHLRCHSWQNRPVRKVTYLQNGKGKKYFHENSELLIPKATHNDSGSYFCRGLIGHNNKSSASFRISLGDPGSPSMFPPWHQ

B1: antibody with VH3-IgG1-F1326 heavy chain and L(WT)-CK light chain (antibody)
heavy: QVQLQESGPGLVKPSETLSLTCAVSGHSISHDHAWSWVRQPPGEGLEWIGFISYSGITNYNPSLQGRVTISRDNSKNTLYLQMNSLRAEDTAVYYCARSLARTTAMDYWGEGTLVTVSSASTKGPSVFPLAPSSKSTSGGTAALGCLVKDYFPEPVTVSWNSGALTSGVHTFPAVLQSSGLYSLSSVVTVPSSSLGTQTYICNVNHKPSNTKVDKKVEPKSCDKTHTCPPCPAPEAAGGPSVFLFPPKPKDVLYISRTPEVTCVVVDVSHEDPEVKFNWYVDGVEVHNAKTKPREEQYNSTYRVVSVLQPLHADWLNGKEYKCKVSNKALPAPIEKTISKAKGQPREPQVYTLPPSRDELTKNQVSLTCLVKGFYPSDIAVEWESNGQPENNYKTTPPVLDSDGSFFLYSKLTVDKSRWQQGNVFSCSVMHEALHYHVTQKSLSLSP
light: not shown
notes: copies: 2 + 2
BINDING AMOUNT (mouse FcγRIV): 85.6

B3: IgG1-F1339 (antibody, name in EU numbering)
heavy: QVQLQESGPGLVKPSETLSLTCAVSGHSISHDHAWSWVRQPPGEGLEWIGFISYSGITNYNPSLQGRVTISRDNSKNTLYLQMNSLRAEDTAVYYCARSLARTTAMDYWGEGTLVTVSSASTKGPSVFPLAPSSKSTSGGTAALGCLVKDYFPEPVTVSWNSGALTSGVHTFPAVLQSSGLYSLSSVVTVPSSSLGTQTYICNVNHKPSNTKVDKKVEPKSCDKTHTCPPCPAPELRGGPKVFLFPPKPKDTLYITREPEVTCVVVDVSHEDPEVKFNWYVDGVEVHNAKTKPREEQYNSTYRVVSVLTVLHQDWLNGKEYKCKVSNKALPAPIEKTISKAKGQPREPQVYTLPPSRDELTKNQVSLTCLVKGFYPSDIAVEWESNGQPENNYKTTPPVLDSDGSFFLYSKLTVDKSRWQQGNVFSCSVMHEALDYHTTKKELSLSP
light: not shown
notes: light chain L(WT)-CK; copies: 2 + 2
Kd (human FcRn [2]): 251 nM

B6: F1211 (antibody, human IgG1, kappa, name in EU numbering)
heavy: QVQLQESGPGLVKPSETLSLTCAVSGHSISHDHAWSWVRQPPGEGLEWIGFISYSGITNYNPSLQGRVTISRDNSKNTLYLQMNSLRAEDTAVYYCARSLARTTAMDYWGEGTLVTVSSASTKGPSVFPLAPSSKSTSGGTAALGCLVKDYFPEPVTVSWNSGALTSGVHTFPAVLQSSGLYSLSSVVTVPSSSLGTQTYICNVNHKPSNTKVDKKVEPKSCDKTHTCPPCPAPELLGGPSVFLFPPKPKDTHYISRTPEVTCVVVDVSHEDPEVKFNWYVDGVEVHNAKTKPREEQYNSTYRVVSVLTVLHQDWLNGKEYKCKVSNKALPAPIEKTISKAKGQPREPQVYTLPPSRDELTKNQVSLTCLVKGFYPSDIAVEWESNGQPENNYKTTPPVLDSDGSFFLYSKLTVDKSRWQQGNVFSCSVMHEALHYHVTQKSLSLSP
light: not shown
notes: copies: 2 + 2
Kd (human FcRn [3]): 1230 nM

B7: IgG1-F1311 (antibody, name in EU numbering)
heavy: QVQLQESGPGLVKPSETLSLTCAVSGHSISHDHAWSWVRQPPGEGLEWIGFISYSGITNYNPSLQGRVTISRDNSKNTLYLQMNSLRAEDTAVYYCARSLARTTAMDYWGEGTLVTVSSASTKGPSVFPLAPSSKSTSGGTAALGCLVKDYFPEPVTVSWNSGALTSGVHTFPAVLQSSGLYSLSSVVTVPSSSLGTQTYICNVNHKPSNTKVDKKVEPKSCDKTHTCPPCPAPELRGGPKVFLFPPKPKDTLYISRTPEVTCVVVDVSHEDPEVKFNWYVDGVEVHNAKTKPREEQYNSTYRVVSVLTVLHQDWLNGKEYKCKVSNKALPAPIEKTISKAKGQPREPQVYTLPPSRDELTKNQVSLTCLVKGFYPSDIAVEWESNGQPENNYKTTPPVLDSDGSFFLYSKLTVDKSRWQQGNAFACSVMHEALDYHVTQKSLSLSP
light: not shown
notes: as for B3
Kd (human FcRn [1]): 169 nM

B10: IgG1-F1017 (antibody)
heavy: QVQLQESGPGLVKPSETLSLTCAVSGHSISHDHAWSWVRQPPGEGLEWIGFISYSGITNYNPSLQGRVTISRDNSKNTLYLQMNSLRAEDTAVYYCARSLARTTAMDYWGEGTLVTVSSASTKGPSVFPLAPSSKSTSGGTAALGCLVKDYFPEPVTVSWNSGALTSGVHTFPAVLQSSGLYSLSSVVTVPSSSLGTQTYICNVNHKPSNTKVDKKVEPKSCDKTHTCPPCPAPELRGGPKVFLFPPKPKDVLYISRTPEVTCVVVDVSHEDPEVKFNWYVDGVEVHEAKTKPREEQYNSTYRVVSVLQPLHADWLNGKEYKCKVSNKALPAPIEKTISKAKGQPREPQVYTLPPSRDELTKNQVSLTCLVKGFYPSDIAVEWESNGQPENNYKTTPPVLDSDGSFFLYSKLTVDKSRWQQGNVFSCSVMHEALHYHVTQKSLSLSP
light: not shown
Kd [4]: 4.2 nM

B11: IgG1-F1340 (antibody, name in EU numbering)
heavy: QVQLQESGPGLVKPSETLSLTCAVSGHSISHDHAWSWVRQPPGEGLEWIGFISYSGITNYNPSLQGRVTISRDNSKNTLYLQMNSLRAEDTAVYYCARSLARTTAMDYWGEGTLVTVSSASTKGPSVFPLAPSSKSTSGGTAALGCLVKDYFPEPVTVSWNSGALTSGVHTFPAVLQSSGLYSLSSVVTVPSSSLGTQTYICNVNHKPSNTKVDKKVEPKSCDKTHTCPPCPAPELRGGPKVFLFPPKPKDTLYITREPEVTCVVVDVSHEDPEVKFNWYVDGVEVHNAKTKPREEQYNSTYRVVSVLTVLHQDWLNGKEYKCKVSNKALPAPIEKTISKAKGQPREPQVYTLPPSRDELTKNQVSLTCLVKGFYPSDIAVEWESNGQPENNYKTTPPVLDSDGSFFLYSKLTVDKSRWQQGNVFSCSVMHEALHYHVTKKELSLSP
light: not shown
notes: as for B3
Kd (human FcRn [2]): 55.8 nM

The remaining lines, values ahead:

Kd (human FcRn [1]): 79.5 nM
B2: IgG1-F1288 (antibody, name in EU numbering)
heavy: QVQLQESGPGLVKPSETLSLTCAVSGHSISHDHAWSWVRQPPGEGLEWIGFISYSGITNYNPSLQGRVTISRDNSKNTLYLQMNSLRAEDTAVYYCARSLARTTAMDYWGEGTLVTVSSASTKGPSVFPLAPSSKSTSGGTAALGCLVKDYFPEPVTVSWNSGALTSGVHTFPAVLQSSGLYSLSSVVTVPSSSLGTQTYICNVNHKPSNTKVDKKVEPKSCDKTHTCPPCPAPELRGGPKVFLFPPKPKDTLYISREPEVTCVVVDVSHEDPEVKFNWYVDGVEVHNAKTKPREEQYNSTYRVVSVLTVLHQDWLNGKEYKCKVSNKALPAPIEKTISKAKGQPREPQVYTLPPSRDELTKNQVSLTCLVKGFYPSDIAVEWESNGQPENNYKTTPPVLDSDGSFFLYSKLTVDKSRWQQGNVFSCSVMHEALHYHVTKKDLSLSP
light: not shown
notes: as for B3

Kd (human FcRn [2]): 87.8 nM
B4: IgG1-F1335 (antibody, name in EU numbering)
heavy: QVQLQESGPGLVKPSETLSLTCAVSGHSISHDHAWSWVRQPPGEGLEWIGFISYSGITNYNPSLQGRVTISRDNSKNTLYLQMNSLRAEDTAVYYCARSLARTTAMDYWGEGTLVTVSSASTKGPSVFPLAPSSKSTSGGTAALGCLVKDYFPEPVTVSWNSGALTSGVHTFPAVLQSSGLYSLSSVVTVPSSSLGTQTYICNVNHKPSNTKVDKKVEPKSCDKTHTCPPCPAPELRRGPKVFLFPPKPKDTLYITRTPEVTCVVVDVSHEDPEVKFNWYVDGVEVHNAKTKPREEQYNSTYRVVSVLTVLHQDWLNGKEYKCKVSNKALPAPIEKTISKAKGQPREPQVYTLPPSRDELTKNQVSLTCLVKGFYPSDIAVEWESNGQPENNYKTTPPVLDSDGSFFLYSKLTVDKSRWQQGNVFSCSVMHEALHYHVTKKDLSLSP
light: not shown
notes: as for B3

Kd (human FcRn [1]): 133 nM
B5: IgG1-F1289 (antibody, name in EU numbering)
heavy: QVQLQESGPGLVKPSETLSLTCAVSGHSISHDHAWSWVRQPPGEGLEWIGFISYSGITNYNPSLQGRVTISRDNSKNTLYLQMNSLRAEDTAVYYCARSLARTTAMDYWGEGTLVTVSSASTKGPSVFPLAPSSKSTSGGTAALGCLVKDYFPEPVTVSWNSGALTSGVHTFPAVLQSSGLYSLSSVVTVPSSSLGTQTYICNVNHKPSNTKVDKKVEPKSCDKTHTCPPCPAPELRGGPKVFLFPPKPKDTLYISREPEVTCVVVDVSHEDPEVKFNWYVDGVEVHNAKTKPREEQYNSTYRVVSVLTVLHQDWLNGKEYKCKVSNKALPAPIEKTISKAKGQPREPQVYTLPPSRDELTKNQVSLTCLVKGFYPSDIAVEWESNGQPENNYKTTPPVLDSDGSFFLYSKLTVDKSRWQQGNVFSCSVMHEALDYHVTRKELSLSP
light: not shown
notes: as for B3

Kd [4]: 340 nM
B8: IgG1-F1019 (antibody, name in EU numbering)
heavy: QVQLQESGPGLVKPSETLSLTCAVSGHSISHDHAWSWVRQPPGEGLEWIGFISYSGITNYNPSLQGRVTISRDNSKNTLYLQMNSLRAEDTAVYYCARSLARTTAMDYWGEGTLVTVSSASTKGPSVFPLAPSSKSTSGGTAALGCLVKDYFPEPVTVSWNSGALTSGVHTFPAVLQSSGLYSLSSVVTVPSSSLGTQTYICNVNHKPSNTKVDKKVEPKSCDKTHTCPPCPAPELLGGDSVFLFPPKPKDVLYISRTPEVTCVVVDVSHEDPEVKFNWYVDGVEVHNAKTKPREEQYNSTYRVVSVLTVLHQDWLNGKEYKCKVSGKALPAPIEKTISKAKGQPREPQVYTLPPSRDELTKNQVSLTCLVKGFYPSDIAVEWESNGQPENNYKTTPPVLDSDGSFFLYSKLTVDKSRWQQGNVFSCSVMHEALHYHYTQKSLSLSP
light: not shown

Kd (human FcRn [3]): 127 nM
B9: F1192 (antibody, name in EU numbering)
heavy: QVQLQESGPGLVKPSETLSLTCAVSGHSISHDHAWSWVRQPPGEGLEWIGFISYSGITNYNPSLQGRVTISRDNSKNTLYLQMNSLRAEDTAVYYCARSLARTTAMDYWGEGTLVTVSSASTKGPSVFPLAPSSKSTSGGTAALGCLVKDYFPEPVTVSWNSGALTSGVHTFPAVLQSSGLYSLSSVVTVPSSSLGTQTYICNVNHKPSNTKVDKKVEPKSCDKTHTCPPCPAPELLGGPSVFLFPPKPKDTLYISRTPEVTCVVVDVSHEDPEVKFNWYVDGVEVHNAKTKPREEQYNSTYRVVSVLTVLHQDWLNGKEYKCKVSNKALPAPIEKTISKAKGQPREPQVYTLPPSRDELTKNQVSLTCLVKGFYPSDIAVEWESNGQPENNYKTTPPVLDSDGSFFLYSKLTVDKSRWQQGNVFSCSVMHEALHYHVGRKELSLSP
light: not shown
notes: copies: 2 + 2

Kd (human FcRn [3]): 157 nM
B12: F1189 (antibody, name in EU numbering)
heavy: QVQLQESGPGLVKPSETLSLTCAVSGHSISHDHAWSWVRQPPGEGLEWIGFISYSGITNYNPSLQGRVTISRDNSKNTLYLQMNSLRAEDTAVYYCARSLARTTAMDYWGEGTLVTVSSASTKGPSVFPLAPSSKSTSGGTAALGCLVKDYFPEPVTVSWNSGALTSGVHTFPAVLQSSGLYSLSSVVTVPSSSLGTQTYICNVNHKPSNTKVDKKVEPKSCDKTHTCPPCPAPELLGGPSVFLFPPKPKDTLYISRTPEVTCVVVDVSHEDPEVKFNWYVDGVEVHNAKTKPREEQYNSTYRVVSVLTVLHQDWLNGKEYKCKVSNKALPAPIEKTISKAKGQPREPQVYTLPPSRDELTKNQVSLTCLVKGFYPSDIAVEWESNGQPENNYKTTPPVLDSDGSFFLYSKLTVDKSRWQQGNVFSCSVMHEALDYHVTRKELSLSP
light: not shown
notes: copies: 2 + 2
